Source: patent US6875743B1, “Cell adhesion inhibitors” (Biogen, Inc., priority 1996, dated 2005)
* marks the point of attachment. 2‑MPUPA = 4-(N′-(2-methylphenyl)urea)phenylacetyl, Cc1ccccc1NC(=O)Nc1ccc(CC(=O)*)cc1

B1: Compound 338 (peptide)
peptide: {2‑MPUPA}-LDVPST-OH
SMILES: Cc1ccccc1NC(=O)Nc1ccc(CC(=O)N[C@@H](CC(C)C)C(=O)N[C@@H](CC(=O)O)C(=O)N[C@H](C(=O)N2CCC[C@H]2C(=O)N[C@@H](CO)C(=O)N[C@H](C(=O)O)[C@@H](C)O)C(C)C)cc1
B2: Compound 339 (peptide)
peptide: {2‑MPUPA}-VLPD-OH
SMILES: Cc1ccccc1NC(=O)Nc1ccc(CC(=O)N[C@H](C(=O)N[C@@H](CC(C)C)C(=O)N2CCC[C@H]2C(=O)N[C@@H](CC(=O)O)C(=O)O)C(C)C)cc1
B3: Compound 337 (peptide)
peptide: {2‑MPUPA}-LDVPS-OH
B4: Compound 341 (peptide)
peptide: {2‑MPUPA}-LPVD-OH
SMILES: Cc1ccccc1NC(=O)Nc1ccc(CC(=O)N[C@@H](CC(C)C)C(=O)N2CCC[C@H]2C(=O)N[C@H](C(=O)N[C@@H](CC(=O)O)C(=O)O)C(C)C)cc1

Each binder was assayed against T1, α4β1 integrin, very late antigen-4 (VLA-4) (UniProt P13612 34-1032; P05556 21-798, limits assumed) (assay: inhibition of Ramos cell adhesion to BSA-CS1).
T1 construct: whole, on cells; also called CD49d/CD29
T1 sequence (P13612 34-1032 limits assumed, chain 1 of 2): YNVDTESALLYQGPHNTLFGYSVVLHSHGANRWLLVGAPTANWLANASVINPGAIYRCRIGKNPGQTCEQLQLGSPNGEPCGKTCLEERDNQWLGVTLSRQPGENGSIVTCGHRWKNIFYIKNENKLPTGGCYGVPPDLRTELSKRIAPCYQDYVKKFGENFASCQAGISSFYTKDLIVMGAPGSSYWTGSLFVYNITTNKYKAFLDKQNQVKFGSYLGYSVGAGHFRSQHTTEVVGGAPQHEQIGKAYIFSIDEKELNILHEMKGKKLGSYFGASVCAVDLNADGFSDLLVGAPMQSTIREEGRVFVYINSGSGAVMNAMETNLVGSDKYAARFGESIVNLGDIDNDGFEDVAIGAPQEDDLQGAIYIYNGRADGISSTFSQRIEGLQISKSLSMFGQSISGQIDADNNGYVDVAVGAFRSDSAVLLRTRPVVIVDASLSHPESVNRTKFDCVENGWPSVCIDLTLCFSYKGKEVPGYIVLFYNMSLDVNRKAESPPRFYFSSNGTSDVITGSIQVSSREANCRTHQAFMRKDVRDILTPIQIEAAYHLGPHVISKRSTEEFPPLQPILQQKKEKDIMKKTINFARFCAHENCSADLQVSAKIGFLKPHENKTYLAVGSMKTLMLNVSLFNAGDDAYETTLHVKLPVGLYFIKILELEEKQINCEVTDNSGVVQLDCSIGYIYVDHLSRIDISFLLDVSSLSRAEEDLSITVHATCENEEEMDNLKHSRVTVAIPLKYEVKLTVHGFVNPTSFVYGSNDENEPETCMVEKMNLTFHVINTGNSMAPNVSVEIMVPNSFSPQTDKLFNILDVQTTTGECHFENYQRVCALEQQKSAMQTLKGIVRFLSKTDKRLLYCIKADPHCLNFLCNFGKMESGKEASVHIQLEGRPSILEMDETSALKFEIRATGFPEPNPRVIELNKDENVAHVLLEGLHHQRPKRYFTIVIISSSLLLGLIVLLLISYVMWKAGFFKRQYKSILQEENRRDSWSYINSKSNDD
T1 sequence (P05556 21-798 limits assumed, chain 2 of 2): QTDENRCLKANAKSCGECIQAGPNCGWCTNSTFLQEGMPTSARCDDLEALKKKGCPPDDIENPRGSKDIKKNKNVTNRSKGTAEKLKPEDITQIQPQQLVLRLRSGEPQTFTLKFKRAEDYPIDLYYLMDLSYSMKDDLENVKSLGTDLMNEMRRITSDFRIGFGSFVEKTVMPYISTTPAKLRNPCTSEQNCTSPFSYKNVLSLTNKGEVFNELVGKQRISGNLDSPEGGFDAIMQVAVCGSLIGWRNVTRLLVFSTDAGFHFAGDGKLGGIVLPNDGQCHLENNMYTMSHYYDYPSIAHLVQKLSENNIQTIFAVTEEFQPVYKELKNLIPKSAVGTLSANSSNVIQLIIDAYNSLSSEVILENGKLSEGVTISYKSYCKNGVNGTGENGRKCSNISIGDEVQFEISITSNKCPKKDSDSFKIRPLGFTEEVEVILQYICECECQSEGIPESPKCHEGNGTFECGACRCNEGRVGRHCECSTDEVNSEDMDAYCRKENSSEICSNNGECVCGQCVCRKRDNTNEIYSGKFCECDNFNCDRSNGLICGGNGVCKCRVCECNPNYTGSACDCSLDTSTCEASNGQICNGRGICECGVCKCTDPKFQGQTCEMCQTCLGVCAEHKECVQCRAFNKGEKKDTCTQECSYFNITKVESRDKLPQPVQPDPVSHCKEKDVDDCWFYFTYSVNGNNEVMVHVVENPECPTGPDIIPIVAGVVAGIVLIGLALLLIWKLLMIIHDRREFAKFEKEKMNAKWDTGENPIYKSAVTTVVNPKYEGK
Method: Following labelling, the cells were washed twice in assay buffer (24 mM TRIS, 137 mM NaCl, 2.7 mM KCl, pH 7.4, containing 0.1% BSA and 2 mM glucose) to remove any cations originating from the culture medium. The cells were then resuspended in assay buffer to 4×10⁶ cells/mL and 2 mM MnCl_2 was added to upregulate VLA4 on the surface of the cells.
Immediately prior to running the assay, we removed the BSA blocking solution from the 96-well plates and washed the wells with 100 μL of assay buffer. We then added to each well 25 μL of test cell adhesion inhibitory compound at 2× the final concentration and 25 μL of the labelled Ramos cells. […] Each concentration of compound was tested in triplicate. The compound and cells are allowed to incubate for 30 minutes at room temperature.
Percent binding is calculated by the formula: […]

Binder	IC50
B1	< 0.05 µM
B2	> 10 µM
B3	< 0.05 µM
B4	> 10 µM
